Values joined by “and” are separate entries in the source; they are usually repeats but may differ in a detail not shown here. Equal entries are not always repeated.

Sequences and labels used below:
B2: ERRα LBD (ERRα-189-423) homodimer (domain or fragment, UniProt P11474 189-423, looked up)
chain: KTAAPVNALVSHLLVVEPEKLYAMPDPAGPDGHLPAVATLCDLFDREIVVTISWAKSIPGFSSLSLSDQMSVLQSVWMEVLVLGVAQRSLPLQDELAFAEDLVLDEEGARAAGLGELGAALLQLVRRLQALRLEREEYVLLKALALANSDSVHIEDAEAVEQLREALHEALLEYEAGRAGPGGGAERRRAGRLLLTLPLLRQTAGKVLAHFYGVKLEGKVPMHKLFLEMLEAMMD
notes: also called ERR LBD; source: cloned in pET24b
B3: ERRα LBD (189-423) homodimer with uncleaved His6 tag (domain or fragment, UniProt P11474 189-423, looked up)
chain: KTAAPVNALVSHLLVVEPEKLYAMPDPAGPDGHLPAVATLCDLFDREIVVTISWAKSIPGFSSLSLSDQMSVLQSVWMEVLVLGVAQRSLPLQDELAFAEDLVLDEEGARAAGLGELGAALLQLVRRLQALRLEREEYVLLKALALANSDSVHIEDAEAVEQLREALHEALLEYEAGRAGPGGGAERRRAGRLLLTLPLLRQTAGKVLAHFYGVKLEGKVPMHKLFLEMLEAMMD
notes: source: cloned in pET24b
B8: ERRγ LBD (ERRγ 229–458) homodimer (domain or fragment, UniProt P62508 229-458, looked up)
chain: PAKKPYNKIVSHLLVAEPEKIYAMPDPTVPDSDIKALTTLCDLADRELVVIIGWAKHIPGFSTLSLADQMSLLQSAWMEILILGVVYRSLSFEDELVYADDYIMDEDQSKLAGLLDLNNAILQLVKKYKSMKLEKEEFVTLKAIALANSDSMHIEDVEAVQKLQDVLHEALQDYEAGQHMEDPRRAGKMLMTLPLLRQTSTKAVQHFYNIKLEGKVPMHKLFLEMLEAKV
notes: also called ERR LBD; source: cloned in pET15b

Data set [1] deals with ERRα LBD (ERRα-189-423) homodimer (UniProt P11474). Kind of data set: ITC; PGC-1α RID wild type or LxxLL mutant (340-580 µM) injected into 40-70 µM ERR in the cell; 20°C; 20 mM Hepes pH 7.5, 120 mM NaCl, 0.2 % glycerol; one set of sites model.
Data set [2] concerns the target ERRγ LBD (ERRγ 229-458) homodimer (UniProt P62508). Described as above.
The target of data set [3] is B8. Kind of data set: native MS; ESI-TOF under non-denaturing conditions, 200 mM ammonium acetate, pH 7.4. Conditions: both partners purified.
Data set [4] addresses B3. Described as above. To be noted: both partners purified.
Data set [5] deals with the molecule itself. Description: SAXS; synchrotron solution scattering (X33 DESY, SWING SOLEIL), direct injection or SEC-coupled; free proteins and complexes.
Data set [6] concerns the molecule itself. Kind of data set: native MS; ESI-TOF under non-denaturing conditions, 200 mM ammonium acetate, pH 7.4.
Data set [7] concerns the target B8. Description: not stated; binding of short PGC-1α peptides to ERR LBDs; told only in the discussion. To be noted: both partners purified.
For data set [8], the target named is B2. The description is as above. To be noted: both partners purified.
Data set [9] has as its target B8. Kind of data set: ITC; MicroCal iTC200, 20°C, pH 7.5, one set of sites model; apparent. To be noted: both partners purified.
The target of data set [10] is B2. The description is as above. Conditions: both partners purified.
Data set [11] concerns the target T1, ERRα LBD (ERRα-189-423) homodimer (UniProt P11474 189-423).
T1 construct: The His6-tag of ERR was cleaved with thrombin for SAXS and left on ERRα for ESI-MS; nothing is said for ITC and native PAGE; also called ERR LBD; source: E. coli BL21 (DE3), purified (HisTrap, SEC)
T1 sequence (looked up): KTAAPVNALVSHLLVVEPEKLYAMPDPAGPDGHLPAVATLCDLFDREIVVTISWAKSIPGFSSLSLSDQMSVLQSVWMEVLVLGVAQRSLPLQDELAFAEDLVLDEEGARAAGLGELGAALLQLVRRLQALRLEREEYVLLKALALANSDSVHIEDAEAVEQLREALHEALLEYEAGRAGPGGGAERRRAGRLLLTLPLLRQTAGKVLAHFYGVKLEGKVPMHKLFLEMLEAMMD
Description: ITC; PGC-1α RID wild type or LxxLL mutant (340-580 µM) injected into 40-70 µM ERR in the cell; 20°C; 20 mM Hepes pH 7.5, 120 mM NaCl, 0.2 % glycerol; one set of sites model. To be noted: both partners purified.

The target in data set [12] is T2, ERRγ LBD (ERRγ 229-458) homodimer (UniProt P62508 229-458).
T2 construct: Cloned in pET15b; The His6-tag of ERR was cleaved with thrombin for SAXS; nothing is said for ITC and native PAGE; also called ERR LBD; source: E. coli BL21 (DE3), purified (HisTrap, SEC)
T2 sequence (looked up): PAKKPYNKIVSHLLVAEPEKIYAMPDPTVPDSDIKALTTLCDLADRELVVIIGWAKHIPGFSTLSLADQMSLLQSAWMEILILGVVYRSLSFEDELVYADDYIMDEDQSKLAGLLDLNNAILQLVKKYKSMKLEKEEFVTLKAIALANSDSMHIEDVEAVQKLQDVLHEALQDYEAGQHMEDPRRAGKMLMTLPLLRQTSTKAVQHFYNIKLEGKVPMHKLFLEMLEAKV
Described as above. Conditions: both partners purified.

For another data set, the target named is T3, PGC-1α NTD (1–285) (human, UniProt Q9UBK2 1-285).
T3 construct: PGC-1α, human, residues 1-285, holds motifs L2 and L3; source: cloned in pET24b
T3 sequence (looked up): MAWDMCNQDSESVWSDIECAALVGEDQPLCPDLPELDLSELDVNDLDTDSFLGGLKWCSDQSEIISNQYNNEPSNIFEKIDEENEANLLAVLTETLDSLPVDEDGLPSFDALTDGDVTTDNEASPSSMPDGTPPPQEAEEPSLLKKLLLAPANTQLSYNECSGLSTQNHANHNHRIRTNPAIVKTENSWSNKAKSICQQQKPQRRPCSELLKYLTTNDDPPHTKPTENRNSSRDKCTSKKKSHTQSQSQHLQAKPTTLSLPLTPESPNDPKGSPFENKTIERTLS
Description: SAXS; synchrotron solution scattering (X33 DESY, SWING SOLEIL), direct injection or SEC-coupled; free proteins and complexes. To be noted: both partners purified.

As for “PGC-1α RID1 L3m (LLKYL to AAKYL) (from UniProt Q9UBK2 122-235) (domain or fragment)”, the stoichiometry N came out at 0.483 in [1] and 0.793 in data set [2].
Regarding “PGC-1α RID1 L2m (LKKLL to LKKAA) (from UniProt Q9UBK2 122-235) (domain or fragment)”, the stoichiometry N in [1] is 0.846; in [2], 0.605.

B1: PGC-1α RID2 (122–285) (domain or fragment, human, UniProt Q9UBK2 122-285, looked up)
chain: EASPSSMPDGTPPPQEAEEPSLLKKLLLAPANTQLSYNECSGLSTQNHANHNHRIRTNPAIVKTENSWSNKAKSICQQQKPQRRPCSELLKYLTTNDDPPHTKPTENRNSSRDKCTSKKKSHTQSQSQHLQAKPTTLSLPLTPESPNDPKGSPFENKTIERTLS
modifications: 15N-labelled in the NMR experiments
notes: PGC-1α, human, residues 122-285, holds motifs L2 and L3; also called His6-tagged PGC-1α RID2; source: cloned in pET24b; not shown: His6, N-terminal, kept
For the molecule B1, the “stoichiometry N” value in data set [3] and in [4] was 1 PGC-1α RID2 molecule per ERR homodimer each time.
In the case of B2, the “stoichiometry N” value in data set [5] was 2 and 6.
In the case of B3, the “stoichiometry N” value in [6] was found to be 2.

B4: short peptide encompassing motif L3 of PGC-1α (peptide)
chain: QQQKPQRRPCSELLKYLTTNDD
modifications: Peptide limits are not printed in the supplied text; taken from the PGC-1α L3 peptide crystallised with ERRα (PDB 3D24, cited in the supplement). Termini unknown.
B4: the Kd in [7] is 1300 nM; in [8], 4100 nM.

B5: short peptide encompassing motif L2 of PGC-1α (peptide)
chain: EAEEPSLLKKLLLAPANTQ
modifications: Peptide limits are not printed in the supplied text; 137-155 is the commonly used PGC-1α L2 peptide around motif 144-148. Termini unknown.
Consider B5, for which the values for the Kd in data set [7] and in data set [8] were 1200 nM and 6100 nM, respectively.

B6: PGC-1α RID1 (122–235), wild type (domain or fragment, human, UniProt Q9UBK2 122-235, looked up)
chain: EASPSSMPDGTPPPQEAEEPSLLKKLLLAPANTQLSYNECSGLSTQNHANHNHRIRTNPAIVKTENSWSNKAKSICQQQKPQRRPCSELLKYLTTNDDPPHTKPTENRNSSRDK
modifications: 15N-labelled in the NMR experiments
notes: His6 is named only for RID2; source: cloned in pET24b
Regarding B6, the Kd in [9] was found to be 53 ± 3 nM; in data set [10], 71 ± 6 nM.

B7: PGC-1α RID1 (122-235), wild type (domain or fragment, human, UniProt Q9UBK2 122-235, looked up)
chain: EASPSSMPDGTPPPQEAEEPSLLKKLLLAPANTQLSYNECSGLSTQNHANHNHRIRTNPAIVKTENSWSNKAKSICQQQKPQRRPCSELLKYLTTNDDPPHTKPTENRNSSRDK
notes: for ITC, native PAGE and SEC-MALS no cleavage of the PGC-1α tag is told; 15N-labelled for NMR; source: E. coli BL21 (DE3), purified (HisTrap, SEC); not shown: His6, N-terminal, kept
As for B7, the “stoichiometry N” value in data set [11] amounted to 0.94 ± 0.001; in data set [12], 0.932 ± 0.001.
B8: in data set [6], the “stoichiometry N” value stood at 2. Further, in the data set with PGC-1α NTD (1–285), the binding result was “binds”.

Values taken from PMC3706463, “The Asymmetric Binding of PGC-1α to the ERRα and ERRγ Nuclear Receptor Homodimers Involves a Similar Recognition Mechanism” (PLoS ONE, 2013).
